Reference: patent publication US5866124

Target: murine anti-HMW-MAA monoclonal antibody 763.74
Assay: ELISA on plates coated with MAb 763.74, culture supernatant, detected with alkaline phosphatase-conjugated anti-human γ

A405: 0.78 A405
B1: chimeric antiidiotypic monoclonal antibody MK2-CHγ1 (antibody, V domains shown)
VH: LQESGGGLVQPGGSRKLSCAASGFTFSSFGMHWVRQAPEKGLEWVAYISSDSSNIYYADTVKGRFTISRDNPKNTLFLQMTSLRSEDTAMYYCARSNYVGYHVRWYFDVWGQGTTVT
VL: QLTQSPASLAVSLGQRVTISCRASESVEYYGSSLMQWYQQKPGQPPKLLIYAASNVESGVPARFSGSGSGTDFSLNIHPVEEDDIAMYFCQQSRKIPYTFGGGTKLEI
